From article PMC13470446

Target: microtubule polymers
Conditions: domain or fragment; chains chain; Polymerised alpha/beta-tubulin heterodimers (one repeat given). Source is not printed (assay 'as previously described' in a cited paper); commercial mammalian brain tubulin is assumed, porcine taken as likeliest (bovine possible). Brain tubulin is an isotype mixture with heterogeneous PTMs (acetyl-Lys40, detyrosination, polyglutamylation); TUBA1B and the pig beta chain are representatives only. GT; modification not given

B1: Smc5 hinge domain (residues 215–885), Q08204 215-885 (protein)
chain: LRELQGNEQSLQKDLDFKKAKIVHLRQESDKLRKSVESLRDFQNKKGEIELHSQLLPYVKVKDHKEKLNIYKEEYERAKANLRAILKDKKPFANTKKTLENQVEELTEKCSLKTDEFLKAKEKINEIFEKLNTIRDEVIKKKNQNEYYRGRTKKLQATIISTKEDFLRSQEILAQTHLPEKSVFEDIDIKRKEIINKEGEIRDLISEIDAKANAINHEMRSIQRQAESKTKSLTTTDKIGILNQDQDLKEVRDAVLMVREHPEMKDKILEPPIMTVSAINAQFAAYLAQCVDYNTSKALTVVDSDSYKLFANPILDKFKVNLRELSSADTTPPVPAETVRDLGFEGYLSDFITGDKRVMKMLCQTSKIHTIPVSRRELTPAQIKKLITPRPNGKILFKRIIHGNRLVDIKQSAYGSKQVFPTDVSIKQTNFYQGSIMSNEQKIRIENEIINLKNEYNDRKSTLDALSNQKSGYRHELSELASKNDDINREAHQLNEIRKKYTMRKSTIETLREKLDQLKREARKDVSQKIKDIDDQIQQLLLKQRHLLSKMASSMKSLKNCQKELISTQILQFEAQNMDVSMNDVIGFFNEREADLKSQYEDKKKFVKEMRDTPEFQSWMREIRSYDQDTKEKLNKVAEKYEEEGNFNLSFVQDVLDKLESEIAMVNHDES
In the case of B1, the Kd is reported as 690 nM.
